The labels stand for the following.
B1: Histone chaperone RTT106 (Saccharomyces cerevisiae), P40161 (parent)
chain: MSKLFLDELPESLSRKIGTVVRVLPSSLEIFEELYKYALNENSNDRSGRHKKPRIDVSSDLLKTDEISETNTIFKLEGVSVLSPLRKKLDLVFYLSNVDGSPVITLLKGNDRELSIYQLNKNIKMASFLPVPEKPNLIYLFMTYTSCEDNKFSEPVVMTLNKENTLNQFKNLGLLDSNVTDFEKCVEYIRKQAILTGFKISNPFVNSTLVDTDAEKINSFHLQCHRGTKEGTLYFLPDHIIFGFKKPILLFDASDIESITYSSITRLTFNASLVTKDGEKYEFSMIDQTEYAKIDDYVKRKQMKDKSMSEELKAKSKSKGQATDGTADQPSILQEATRQMQDEKKAGVFSDDDEENDQNFEAESDLSDGSGQESSDGAEDGEEAEEDDEEDDEEEDKKGQSALNRDNSFASINGQPEQELQYKEFKEPLELEDIPIEIDNDDDEDDEDGSGVEYD

In this experiment the parent is B1. The note with it: with h3_yeast HHT1, P61830.
Take S80E: the “effect of a mutation on the interaction” value is listed as “disrupting interaction strength”. For T265E, the “effect of a mutation on the interaction” value is listed as “disrupting interaction strength”. In the case of R86A, the “effect of a mutation on the interaction” value is “disrupting interaction strength”.

The values above are taken from IntAct's records for PubMed 22198837.
